Experimental findings from patent publication US20240090511A1 are described below.

For the assay, the target named is N. viridula BBMV proteins. In words: competition pull-down: biotinylated peptide against ABP5-(AP)5-mCherry on BBMV.

On to MDWPRRN (biotinylated (position not given)) [biotinylated synthetic peptide (ABP5)], for which the competitor peptide concentration at which binding was outcompeted was more than 10 µM.
